Measurements as given in US20110091994A1, “Methods for Screening Compounds for Treating and/or Preventing an Hepatitis C Virus Infection” (priority 2008, published 2011).
Read-outs that look alike come from different tables or passages of the source.

Key:
HCV proteins = molecular target: T1, HCV proteins (Hepatitis C virus genotype 1b, UniProt Q9WMX2); test: Validation by Y2H pairwise matrices; format: binding;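 further: yeast two-hybrid pairwise tests of interactions first found in Y2H screens of HCV bait proteins against human cDNA libraries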
T1 construct: expressed in transfected cells

[1] = tested on: HCV ORFs (Gal4-DB fusions); format: binding, HCV genotype 1b, isolate con1; details: human protein listed by gene symbol; the value names the HCV protein it interacts with
[2] = molecular target: T2, HCV ORFs (Gal4-DB fusions) (Hepatitis C virus genotype 1b, UniProt Q9WMX2); format: binding, HCV genotype 1b, isolate con1; details: human protein as prey
T2 construct: expressed in transfected cells; host or cells: Saccharomyces cerevisiae MAV203 (IMAP1) / AH109 (IMAP2)

[3] = validation of interaction with HCV protein NS3
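Wherever IMAP Y2H IMAP1 (number of IST) is given: yeast two-hybrid screens using HCV genotype 1b proteins fused to Gal4-DB as baits against prey cDNA libraries from human spleen and foetal brain, IMAP1 via transformation and IMAP2 via mating.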
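Wherever Interaction with viral protein is given: yeast two-hybrid screens using HCV genotype 1b proteins fused to Gal4-DB as baits against prey cDNA libraries from human spleen and foetal brain, IMAP1 via transformation and IMAP2 via mating.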

B1: LDB1 (protein, UniProt Q86U70 2-411, looked up)
LIM domain-binding protein 1: SVGCACPGCSSKSFKLYSPKEPPNGNAFPPFHPGTMLDRDVGPTPMYPPTYLEPGIGRHTPYGNQTDYRIFELNKRLQNWTEECDNLWWDAFTTEFFEDDAMLTITFCLEDGPKRYTIGRTLIPRYFRSIFEGGATELYYVLKHPKEAFHSNFVSLDCDQGSMVTQHGKPMFTQVCVEGRLYLEFMFDDMMRIKTWHFSIRQHRELIPRSILAMHAQDPQMLDQLSKNITRCGLSNSTLNYLRLCVILEPMQELMSRHKTYSLSPRDCLKTCLFQKWQRMVAPPAEPTRQQPSKRRKRKMSGGSTMSSGGGNTNNSNSKKKSPASTFALSSQVPDVMVVGEPTLMGGEFGDEDERLITRLENTQFDAANGIDDEDSFNNSPALGANSPWNSKPPSSQESKSENPTSQASQ
Y2H matrices (HCV proteins; [3]): + | Interaction with viral protein [1]: NS3 | IMAP Y2H IMAP1 (number of IST) ([2]; HCV protein NS3 as bait): 1

B2: LRRCC1 (protein, UniProt Q9C099 1-1032, looked up)
Leucine-rich repeat and …: MEAAAAVVAAEAEVENEDGDSSCGDVCFMDKGLQSISELSLDSTLHAVNLHCNNISKIEAIDHIWNLQHLDLSSNQISRIEGLNTLTKLCTLNLSCNLITKVEGLEELINLTRLNVSYNHIDDLSGLIPLHGIKHKLRYIDLHSNRIDSIHHLLQCMVGLHFLTNLILEKDGDDNPVCRLPGYRAVILQTLPQLRILDCKNIFGEPVNLTEINSSQLQCLEGLLDNLVSSDSPLNISEDEIIDRMPVITAPIDELVPLEQFASTPSDAVLTSFMSVCQSSEPEKNNHENDLQNEIKLQKLDDQILQLLNETSNSIDNVLEKDPRPKRDTDITSESDYGNRKECNRKVPRRSKIPYDAKTIQTIKHHNKNYNSFVSCNRKMKPPYLKELYVSSSLANCPMLQESEKPKTEIIKVDQSHSEDNTYQSLVEQLDQEREKRWRAEQAENKLMDYIDELHKHANEKEDIHSLALLTTDRLKEIIFRERNSKGQLEVMVHKLQNEIKKLTVELMKAKDQQEDHLKHLRTLEKTLEKMERQKRQQQAAQIRLIQEVELKASAADREIYLLRTSLHREREQAQQLHQLLALKEQEHRKELETREFFTDADFQDALAKEIAKEEKKHEQMIKEYQEKIDVLSQQYMDLENEFRIALTVEARRFQDVKDGFENVATELAKSKHALIWAQRKENESSSLIKDLTCMVKEQKTKLAEVSKLKQETAANLQNQINTLEILIEDDKQKSIQIELLKHEKVQLISELAAKESLIFGLRTERKVWGHELAQQGSSLAQNRGKLEAQIESLSRENECLRKTNESDSDALRIKCKIIDDQTETIRKLKDCLQEKDEHIKRLQEKITEIEKCTQEQLDEKSSQLDEVLEKLERHNERKEKLKQQLKGKEVELEEIRKAYSTLNRKWHDKGELLCHLETQVKEVKEKFENKEKKLKAERDKSIELQKNAMEKLHSMDDAFKRQVDAIVEAHQAEIAQLANEKQKCIDSANLKVHQIEKEMRELLEETCKNKKTMEAKIKQLAFALNEIQQDM
Y2H matrices (HCV proteins; [3]): + | Interaction with viral protein [1]: NS3 | IMAP Y2H IMAP1 (number of IST) ([2]; HCV protein NS3 as bait): 1

B3: LPXN (protein, UniProt O60711 1-386, looked up)
Leupaxin: MEELDALLEELERSTLQDSDEYSNPAPLPLDQHSRKETNLDETSEILSIQDNTSPLPAQLVYTTNIQELNVYSEAQEPKESPPPSKTSAAAQLDELMAHLTEMQAKVAVRADAGKKHLPDKQDHKASLDSMLGGLEQELQDLGIATVPKGHCASCQKPIAGKVIHALGQSWHPEHFVCTHCKEEIGSSPFFERSGLAYCPNDYHQLFSPRCAYCAAPILDKVLTAMNQTWHPEHFFCSHCGEVFGAEGFHEKDKKPYCRKDFLAMFSPKCGGCNRPVLENYLSAMDTVWHPECFVCGDCFTSFSTGSFFELDGRPFCELHYHHRRGTLCHGCGQPITGRCISAMGYKFHPEHFVCAFCLTQLSKGIFREQNDKTYCQPCFNKLFPL
Y2H matrices (HCV proteins; validation of interaction with HCV protein CORE): + | Interaction with viral protein [1]: CORE | IMAP Y2H IMAP1 (number of IST) ([2]; HCV protein CORE as bait): 1
